Assay results from doi:10.1101/2025.08.03.668247, “The structure of Egalitarian in complex with the K10 mRNA localization signal reveals a modular binding surface required for function”.
Residue numbers refer to the chain shown, from its start.

Assays:
Assay in all cases: fluorescence anisotropy; FA: 20 mM HEPES-NaOH pH 7.5, 100 mM NaCl, 10% glycerol, 20 C, 10 nM FAM-RNA; competition: 150 nM Egl512-819 + 10 nM FAM-K10 TLS, same buffer
Settings in all cases: protein: recombinant; tags: N-terminal GST; label: 5'-6-FAM; hairpin with two bulges
Egl512-931 = molecular target: T1, Egl512-931 (Drosophila melanogaster, UniProt Q9W1K4 512-931)
T1 sequence: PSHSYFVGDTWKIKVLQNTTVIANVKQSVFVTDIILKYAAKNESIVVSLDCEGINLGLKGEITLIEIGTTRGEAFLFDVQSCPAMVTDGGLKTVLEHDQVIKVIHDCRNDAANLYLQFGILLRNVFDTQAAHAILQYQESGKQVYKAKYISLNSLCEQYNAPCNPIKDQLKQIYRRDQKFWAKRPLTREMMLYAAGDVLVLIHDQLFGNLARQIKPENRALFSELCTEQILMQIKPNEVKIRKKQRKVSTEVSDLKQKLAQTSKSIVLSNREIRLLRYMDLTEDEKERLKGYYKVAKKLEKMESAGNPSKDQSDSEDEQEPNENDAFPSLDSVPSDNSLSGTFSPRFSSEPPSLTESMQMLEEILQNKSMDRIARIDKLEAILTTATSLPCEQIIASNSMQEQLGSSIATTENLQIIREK

Y685A = molecular target: T2, Y685A (Drosophila melanogaster, UniProt Q9W1K4 512-819, Y685A)
T2 sequence: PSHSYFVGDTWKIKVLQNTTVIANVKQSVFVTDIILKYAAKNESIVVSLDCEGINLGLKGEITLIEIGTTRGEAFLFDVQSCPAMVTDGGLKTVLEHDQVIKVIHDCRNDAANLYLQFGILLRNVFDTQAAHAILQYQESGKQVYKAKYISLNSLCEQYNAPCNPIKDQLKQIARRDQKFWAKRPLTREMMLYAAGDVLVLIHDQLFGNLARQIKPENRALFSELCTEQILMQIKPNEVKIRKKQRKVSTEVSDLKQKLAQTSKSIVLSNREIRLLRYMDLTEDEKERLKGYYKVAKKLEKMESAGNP

K758A = molecular target: T3, K758A (Drosophila melanogaster, UniProt Q9W1K4 512-819, K758A)
T3 sequence: T2 sequence with A174Y, K247A

L-Triple = molecular target: T4, L-Triple (Drosophila melanogaster, UniProt Q9W1K4 512-819, R753E;K754E;K755E)
T4 sequence: T2 sequence with A174Y, R242E, K243E, K244E

L-EHD (Egl743-819) = molecular target: T5, L-EHD (Egl743-819) (Drosophila melanogaster, UniProt Q9W1K4 743-819)
T5 sequence: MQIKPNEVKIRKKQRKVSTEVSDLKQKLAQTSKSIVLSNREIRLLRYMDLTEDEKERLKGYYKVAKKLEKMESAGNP

Egl512-1004 = molecular target: T6, Egl512-1004 (Drosophila melanogaster, UniProt Q9W1K4 512-1004)
T6 sequence: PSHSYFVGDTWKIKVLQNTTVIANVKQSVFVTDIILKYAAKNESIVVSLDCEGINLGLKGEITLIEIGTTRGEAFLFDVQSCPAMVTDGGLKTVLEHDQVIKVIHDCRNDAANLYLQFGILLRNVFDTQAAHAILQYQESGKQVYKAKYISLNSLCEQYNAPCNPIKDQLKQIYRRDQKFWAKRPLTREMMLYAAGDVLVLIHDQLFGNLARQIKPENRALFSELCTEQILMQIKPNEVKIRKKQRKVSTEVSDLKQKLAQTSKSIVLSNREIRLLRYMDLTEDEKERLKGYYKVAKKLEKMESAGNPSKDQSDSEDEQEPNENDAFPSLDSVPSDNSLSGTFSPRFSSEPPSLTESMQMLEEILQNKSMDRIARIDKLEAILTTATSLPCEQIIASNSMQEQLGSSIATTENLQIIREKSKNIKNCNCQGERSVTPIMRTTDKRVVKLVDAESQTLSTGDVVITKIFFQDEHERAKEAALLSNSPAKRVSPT

**Q.** For CUUGAUUGUAUUUUUAAAUUAAUUCUUAAAAACUACAAAUUAAG (structured_RNA) [K10 TLS (FAM)], which Kd (Egl512-931) is on record?
**A.** The Kd was 0.164 ± 0.007 µM.

**Q.** What about the Kd (Y685A) of the same binder?
**A.** The Kd was 0.221 ± 0.011 µM.

**Q.** And the Kd (K758A)?
**A.** Its Kd is 0.319 ± 0.019 µM.

**Q.** What about the Kd (L-Triple) of the same binder?
**A.** Its Kd is 1.46 ± 0.302 µM.

**Q.** And the Kd (L-EHD (Egl743-819))?
**A.** The Kd was 0.262 ± 0.009 µM.

**Q.** What about the Kd (Egl512-1004) of the same binder?
**A.** The Kd was 0.144 ± 0.006 µM.
